How the values were obtained:
Test in all cases: ELISA
551 = target: T1, 551; design: key to grade: 0 = <0.5 OD, 1 = 0.5-1.0 OD, 4 = 1-4 OD
T1 construct: H3-23 L1-40; also called PIN551
Description: (§1) Before specificity screening, all of the clonal immunogen-positive hybridoma supernatants were re-screened on the immunogen, a non-family member Id protein, and KLH, if animals were immunized with Id protein that has been conjugated KLH. As described above, this screen identifies HC-specific clones but not mAbs against the light chain constant region. Clones identified positive to the immunogen and KLH were […]. Those found positive to the immunogen but not to the non-family member Id protein or KLH were tittered on the immunogen. In addition to normalizing for different binding affinities and concentrations, each hybridoma supernatant was titered on the fully human form of the Id protein used as the immunogen(s) for the V regions. The titer or dilution resulting in an ELISA absorbance of 2.5 to 3 OD after 30 min. incubation time was then used. Hybridoma specificity was determined by screening against available Id proteins expressing the same HV and KV or LV as well as different HV, KV and LV. The final ELISA results are expressed as follows: 0 (<0.5 OD), 1 (0.5-1.0 OD), or 4 (1-4 OD). Positive hybridoma supernatants are categorized according to specificity: anti-Id, anti-constant region (HC, KC or LC), or V region (HV, KV, LV family or family member).
(§2) In general, the fully human Id protein or proteins containing the immunogen V regions were coated onto 96-well ELISA plates at 2.5-5 ug/mL in carbonate buffer pH 9.6 and incubated at 4° C. for up to 14 days. On the day of the ELISA, plates were brought to RT and blocked with Tris-Tween-20, pH 7.6 for 15-60 min. at RT. Following a NaCl and Triton X-100 wash, diluted hybridoma cell culture supernatants were incubated overnight at 4° C. Hybridoma supernatant dilutions ranged from 1:2 to 1:25 and were prepared in PBS with 5% BSA. Plates were washed and incubated with HRP-conjugated goat anti-mouse IgG-specific detecting antibody. A chromogenic substrate (TMB) was used to measure the amount of mouse antibody bound to each well. The reaction was stopped at or before 30 minutes with IN H2SO4 and plates were read immediately. Absorbency readings at 450 nm ranging between 0-4 OD and using Molecular Devices plate reader and SOFTMAX PRO software.

1131 = target: T2, 1131; design: key to grade: 0 = <0.5 OD, 1 = 0.5-1.0 OD, 4 = 1-4 OD
T2 construct: H4-31 L3-25; also called PIN1131
Description: as §1, §2

791 = target: T3, 791; design: key: 0 = <0.5 OD, 1 = 0.5-1.0 OD, 4 = 1-4 OD
T3 construct: H3-30 K4-1; also called PIN791
Description: as §1, §2

631 = target: T4, 631; design: key: 0 = <0.5 OD, 1 = 0.5-1.0 OD, 4 = 1-4 OD
T4 construct: H4-34 K4-1; also called PIN631
Description: as §1, §2

585 = target: T5, 585; design: key: 0 = <0.5 OD, 1 = 0.5-1.0 OD, 4 = 1-4 OD
T5 construct: H4-59 K4-1; also called PIN585
Description: as §1, §2

[1] = target: T6, PIN185 fully human Id protein (human); design: key: 0 = <0.5 OD, 1 = 0.5-1.0 OD, 4 = 1-4 OD
T6 construct: Patient-derived idiotype immunoglobulin used as control antigen in SPR
Description: as §1, §2

763 = target: T7, 763; design: key: 0 = <0.5 OD, 1 = 0.5-1.0 OD, 4 = 1-4 OD
T7 construct: H4-59 K4-1; also called PIN763
Description: as §1, §2

1088 = target: T8, 1088; design: key: 0 = <0.5 OD, 1 = 0.5-1.0 OD, 4 = 1-4 OD
T8 construct: H2-5 K4-1; also called PIN1088
Description: as §1, §2

913 = target: T9, 913; design: key: 0 = <0.5 OD, 1 = 0.5-1.0 OD, 4 = 1-4 OD
T9 construct: fully human Id protein; also called PIN913
Description: as §1, §2

591 = target: T10, 591; design: key: 0 = <0.5 OD, 1 = 0.5-1.0 OD, 4 = 1-4 OD
T10 construct: H3-23 K4-1; also called PIN591
Description: as §1, §2

899 = target: T11, 899; design: key: 0 = <0.5 OD, 1 = 0.5-1.0 OD, 4 = 1-4 OD
T11 construct: H4-34 K4-1; also called PIN899
Description: as §1, §2

844 = target: T12, 844; design: key: 0 = <0.5 OD, 1 = 0.5-1.0 OD, 4 = 1-4 OD
T12 construct: H3-7 K4-1; also called PIN844
Description: as §1, §2

902 = target: T13, 902; design: key: 0 = <0.5 OD, 1 = 0.5-1.0 OD, 4 = 1-4 OD
T13 construct: H3-7 K3-20; also called PIN902
Description: as §1, §2

950 = target: T14, 950; design: key: 0 = <0.5 OD, 1 = 0.5-1.0 OD, 4 = 1-4 OD
T14 construct: H4-59 K4-1; also called PIN950
Description: as §1, §2

659 = target: T15, 659; design: key: 0 = <0.5 OD, 1 = 0.5-1.0 OD, 4 = 1-4 OD
T15 construct: H3-21 K4-1; also called PIN659
Description: as §1, §2

170 = target: T16, 170; design: key: 0 = <0.5 OD, 1 = 0.5-1.0 OD, 4 = 1-4 OD
T16 construct: H4-34 K4-1; also called PIN170
Description: as §1, §2

1154 = target: T17, 1154; design: key: 0 = <0.5 OD, 1 = 0.5-1.0 OD, 4 = 1-4 OD
T17 construct: H4-61 K4-1; also called PIN1154
Description: as §1, §2

987 = target: T18, 987; design: key: 0 = <0.5 OD, 1 = 0.5-1.0 OD, 4 = 1-4 OD
T18 construct: H3-23 K4-1; also called PIN987
Description: as §1, §2

1175 = target: T19, 1175; design: key: 0 = <0.5 OD, 1 = 0.5-1.0 OD, 4 = 1-4 OD
T19 construct: H3-53 K4-1; also called PIN1175
Description: as §1, §2

792 = target: T20, 792; design: key: 0 = <0.5 OD, 1 = 0.5-1.0 OD, 4 = 1-4 OD
T20 construct: H1-3 K4-1; also called PIN792
Description: as §1, §2

T9 sequence (heavy, as listed by the source): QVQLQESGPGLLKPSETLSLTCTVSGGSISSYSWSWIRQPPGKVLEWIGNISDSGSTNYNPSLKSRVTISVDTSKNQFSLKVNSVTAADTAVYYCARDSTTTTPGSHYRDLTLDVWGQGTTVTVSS

| grade 551 | grade 1131 | grade 791 | grade 631 | grade 585 | grade [1] | grade 763 | grade 1088 | grade 913 | grade 591 | grade 899 | grade 844 | grade 902 | grade 950 | grade 659 | grade 170 | grade 1154 | grade 987 | grade 1175 | grade 792 | Binder |
| --- | --- | --- | --- | --- | --- | --- | --- | --- | --- | --- | --- | --- | --- | --- | --- | --- | --- | --- | --- | --- |
| 4 | 4 |  |  |  |  |  |  |  |  |  |  |  |  |  |  |  |  |  |  | mAb clone 4H11 (antibody, V domains shown, Mouse hybridoma mAb) VH: EVKLVESGGGLVKPGGSLKLSCAASGFAFSNYDMSWVRQTPEKRLEWVATIRSDDSYTYYPDSVKGRFTISRDNARNTLYLQMSSLRSEDTAFYYCARREGNYAMDYWGQGTSVTVSS VL: DIQMTQSPASLSVSVGETVTITCRASENIYSYLAWYQQKKGKSPQLLVYAATNLGDGVPTRFSGSGSGTQYSLKINSLQSEDFGSYYCQHFWGNPLTFGAGTKLELKR |
|  |  | 4 | 4 | 4 | 4 | 4 | 4 | 4 | 4 | 4 | 4 | 4 | 4 | 4 | 4 | 4 | 4 | 4 | 4 | mAb clone 12C3 (antibody, V domains shown, Mouse hybridoma mAb, fusions 20/21 (PIN628 V regions)) VH: EVKLVESGGGLVQPGGSLSLSCAASGFTYTDYYMNWVRQPPGKALEWLALIRNKANGYTTEYSASLKGRFTISRDNSQSILYLQMNALRAEDSATYYCVRENINYYFDYWGQGTTLTVSS VL: DIVLTQSPASLAVSLGQRATISCRASESVEYFGASLMQWYQQKSGQPPKLLIRAATNVESGVPARFSGSGSGTDFSLNIHPVEEDDIAMYFCQQSRKVPWTFGGGTKLEIKR |

Source: patent publication US20070134249A1 (GENITOPE, published 2007)
